Data as given in patent US20220267421A1 (INVOX PHARMA, published 2022).
Where two headings read alike, the source gives them in different places.

Experiments:
[1] = target: T1, human MSLN-His-Avi (human, UniProt Q13421 296-598, single biotin (BirA) in the biotinylated form); assay: SPR (Biacore), MSLN immobilised, mAb^2 injected
T1 construct: Monomeric, made in HEK293-6E; Used both immobilised and in solution; also called hMSLN-His-Avi; biotinylated hMSLN-His-Avi
Experimental: (§1) Human MSLN-His-Avi was immobilised on flow cell 2 on a CM5 Series S BIAcore sensor chip (GE Healthcare, BR100530) using an amine coupling kit (GE Healthcare, BR10050) to approximately 200 response units (RU). Flow cell 1 was left blank for subtraction. HEK293-6E supernatants or purified proteins were adjusted with HBS-EP+(GE Healthcare) to approximately 50 nM anti-MSLN mAb per sample. Samples were injected over flow cell 1 and 2 for 2.5 min at 30 μl/min and then allowed to dissociate in HBS-EP buffer for 2.5 min. Regeneration was achieved by injecting 10 mM glycine pH 1.5 (GE Healthcare, BR100354) for 30 seconds at a rate of 30 μl/min. Subtracted data (flow cell 2−flow cell 1) were analysed using BIAevaluation 3.2 Software (GE Healthcare).
(§2) Binding of the selected anti-MSLN clones in mAb² format, to recombinant human and cyno MSLN-His-Avi antigen was measured by SPR using a Biacore T200 processing unit (GE Healthcare). As previously described, it was desirable to bind more strongly to immobilised antigen than to soluble antigen. To assess the binding properties of the clones, binding kinetics to immobilised MSLN antigen were determined as described in section 2.1.2 and compared to the kinetics obtained when MSLN antigens in solution bound to captured clones.

[2] = target: T1, human MSLN-His-Avi; assay: ratio of the two SPR KD
Experimental: as §1, §2
(§3) For the capture experiments, clones in mAb² format were captured using a BIAcore sensor series S chip Protein G (GE Healthcare, 29179315). mAb² diluted in HBS-EP buffer (GE Healthcare, BR100188) containing 900 mM […] at 1 μg/ml, were injected individually on flow cell 2, 3 and 4 at 30 μl/min to achieve a response of approximately 100 RU. G1-AA/HeID1.3 was captured on flow cell 1. The recombinant human and cyno MSLN-His-Avi (section 1.1), diluted in HBS-EP buffer containing 900 mM […], were injected on flow cell 1, 2, 3 or 4 as appropriate at a concentration range of 1000 nM to 0.051 nM with 3-fold dilutions for 5 minutes at 70 μl/min and then allowed to dissociate in buffer for 5 minutes. Regeneration was achieved by injecting 10 mM glycine pH1.5 (GE Healthcare, BR100354) and surfactant P20 (GE Healthcare, BR-1000-54) for 20 seconds at a rate of 30 μl/min.

[3] = target: T2, cell surface human mesothelin (MSLN) (human, UniProt Q13421 296-598); assay: flow cytometry (BD CantoII), NCI-H226 cells + 20 nM soluble MSLN
T2 construct: whole, on cells; also called cell surface MSLN

[4] = target: T2, cell surface human mesothelin (MSLN); assay: flow cytometry (BD CantoII), NCI-H226 cells
[5] = target: T3, cynomolgus MSLN-His-Avi (cynomolgus, single biotin (BirA) in the biotinylated form); assay: SPR (Biacore), mAb^2 captured on Protein G, MSLN in solution injected
T3 construct: Monomeric, made in HEK293-6E; also called cMSLN-His-Avi; cyno MSLN-His-Avi
T3 chain: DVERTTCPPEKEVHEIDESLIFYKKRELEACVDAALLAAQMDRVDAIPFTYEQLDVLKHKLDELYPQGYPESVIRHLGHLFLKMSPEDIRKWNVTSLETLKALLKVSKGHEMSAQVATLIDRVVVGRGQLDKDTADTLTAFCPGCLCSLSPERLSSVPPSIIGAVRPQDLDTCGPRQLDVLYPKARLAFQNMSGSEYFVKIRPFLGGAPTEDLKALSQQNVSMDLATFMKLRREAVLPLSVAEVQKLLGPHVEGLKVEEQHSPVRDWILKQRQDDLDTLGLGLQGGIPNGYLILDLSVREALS
Experimental: as §2
as §3, with “μl/min. Subtracted data (flow cell 2−flow cell 1, flow cell 3−flow cell 1, or flow cell 4−flow cell 1) were analysed using BIAevaluation 3.2 Software (GE Healthcare) to identify binding using the model 1:1 binding, local Rmax and with refractive index (RI) constant 0.” for “μl/min.”

[6] = target: T1, human MSLN-His-Avi; assay: as above
Experimental: as §2
as §3, with “μl/min. Subtracted data (flow cell 2−flow cell 1, flow cell 3−flow cell 1, or flow cell 4−flow cell 1) were analysed using BIAevaluation 3.2 Software (GE Healthcare) to identify binding using the model 1:1 binding, local Rmax and with refractive index (RI) constant 0.” for “μl/min.”

[7] = target: T4, mouse MSLN-His-Avi (mouse, UniProt Q61468 298-600, single biotin (BirA) in the biotinylated form); assay: ratio of the two SPR KD
T4 construct: Monomeric, made in HEK293-6E; also called mMSLN-His-Avi
T4 sequence: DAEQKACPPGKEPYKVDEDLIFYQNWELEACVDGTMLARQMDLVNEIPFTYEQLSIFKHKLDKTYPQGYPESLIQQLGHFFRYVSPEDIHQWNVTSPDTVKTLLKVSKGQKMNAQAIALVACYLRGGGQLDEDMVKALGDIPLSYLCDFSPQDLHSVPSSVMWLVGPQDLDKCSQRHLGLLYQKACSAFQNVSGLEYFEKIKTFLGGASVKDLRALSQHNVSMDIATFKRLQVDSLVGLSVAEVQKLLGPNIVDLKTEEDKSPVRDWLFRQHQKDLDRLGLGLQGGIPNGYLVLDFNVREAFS
Experimental: (§4) The procedure for binding to immobilised MSLN was similar to the method described in section 2.1.4 with mMSLN-His-Avi immobilised at 50 RU. To determine the affinity for soluble MSLN the mAb² were captured via anti-human Fc. Briefly, 25 μg/ml anti-human IgG (Fc) antibody (GE Healthcare, Human Antibody Capture Kit, BR100839) was coated on flow cells 1, 2, 3 and 4 of a Biacore sensor chip CM5 (GE Healthcare, BR100530) achieving a final response of approximately 750 RU. The mAb² clones, diluted in HBS-EP buffer (GE Healthcare, BR100188) at 50 nM, were injected individually on flows cell 2, 3 and 4 at 30 μl/min to achieve a response of approximately 100 RU. […] Regeneration was achieved by injecting 3 M magnesium chloride (GE Healthcare, Human Antibody Capture Kit, BR100839) for 30 seconds at a rate of 30 μl/min.

[8] = target: T4, mouse MSLN-His-Avi; assay: SPR (Biacore), mMSLN-His-Avi immobilised at 50 RU
Experimental: as §4

[9] = target: T4, mouse MSLN-His-Avi; assay: SPR (Biacore), mAb^2 captured via anti-human Fc, mMSLN-His-Avi in solution
Experimental: as §4

[10] = target: T2, cell surface human mesothelin (MSLN); assay: cell-based or functional assay
[11] = target: T5, OX40 on activated T cells (UniProt P43489 29-277, limits assumed); assay: cell-based or functional assay
T5 sequence (looked up): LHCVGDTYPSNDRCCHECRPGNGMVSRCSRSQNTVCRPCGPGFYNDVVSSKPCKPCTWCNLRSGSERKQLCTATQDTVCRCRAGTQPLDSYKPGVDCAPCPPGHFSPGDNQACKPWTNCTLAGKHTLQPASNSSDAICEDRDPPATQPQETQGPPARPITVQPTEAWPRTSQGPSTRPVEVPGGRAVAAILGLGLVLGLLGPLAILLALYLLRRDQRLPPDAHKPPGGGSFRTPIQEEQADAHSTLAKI

[12] = target: T1, human MSLN-His-Avi; assay: SPR as Example 4.1 (about 40 RU instead of 100), MSLN in solution
[13] = target: T1, human MSLN-His-Avi; assay: SPR as Example 4.1 (about 40 RU instead of 100), MSLN immobilised
[14] = target: T1, human MSLN-His-Avi; assay: ratio of the two SPR KD; remark: listed apart in the source
[15] = target: CD137 on CD8+ T cells (human, UniProt Q07011 24-255); assay: cell-based or functional assay
Chain of CD137 on CD8+ T cells (Q07011 24-255): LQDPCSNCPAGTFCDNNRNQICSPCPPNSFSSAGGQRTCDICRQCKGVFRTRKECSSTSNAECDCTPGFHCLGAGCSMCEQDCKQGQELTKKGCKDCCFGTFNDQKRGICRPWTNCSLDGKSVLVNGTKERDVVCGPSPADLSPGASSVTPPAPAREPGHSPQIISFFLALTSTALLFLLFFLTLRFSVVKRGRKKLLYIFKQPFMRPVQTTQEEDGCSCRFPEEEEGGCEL

T1 sequence (Q13421 other isoform, or with tags, fused parts or gaps): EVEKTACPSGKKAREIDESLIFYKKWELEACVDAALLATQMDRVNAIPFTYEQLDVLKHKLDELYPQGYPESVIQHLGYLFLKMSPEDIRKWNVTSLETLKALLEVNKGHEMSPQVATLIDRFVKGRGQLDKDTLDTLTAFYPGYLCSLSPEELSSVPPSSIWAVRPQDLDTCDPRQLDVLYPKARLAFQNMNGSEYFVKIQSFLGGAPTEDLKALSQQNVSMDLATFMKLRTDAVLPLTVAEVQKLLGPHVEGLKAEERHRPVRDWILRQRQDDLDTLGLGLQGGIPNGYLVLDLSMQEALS
T2 sequence (Q13421 other isoform, or with tags, fused parts or gaps limits assumed): as the sequence (Q13421 other isoform, or with tags, fused parts or gaps) above

B1: FS22-053-008-AA/FS28-185 (bispecific antibody, human IgG1, kappa, L234A L235A, V domains shown)
VH: EVQLLESGGGLVQPGGSLRLSCAASGFTFTTSAMSWVRQAPGKGLEWVSRINPYEGETNYADSVKGRFTISRDNSKNTLYLQMNSLRAEDTAVYYCARGWSIATYYKSAMDYWGQGTLVTVSS
VL: EIVLTQSPGTLSLSPGERATLSCRASQSVSSSYLAWYQQKPGQAPRLLIYGASSRATGIPDRFSGSGSGTDFTLTISRLEPEDFAVYYCQQSSYSAPVTFGQGTKVEIKR
Kd [1]: 30.1 nM | Ratio of KD in solution/immobilised for human MSLN-His-Avi [2]: 15 | EC50 [3]: 14.3 nM | EC50 [4]: 16.3 nM | Kd [5]: 362 nM | Kd [6]: 452 nM

B2: FS22-063-AA/FS28m-228 mAb^2 (bispecific antibody, human IgG1, kappa, L234A L235A, V domains shown)
VH: EVQLLESGGGLVQPGGSLRLSCAASGFTFSTYFMVWVRQAPGKGLEWVSMISPKSSNTYYADSVKGRFTISRDNSKNTLYLQMNSLRAEDTAVYYCARWFTPARFDYWGQGTLVTVSS
VL: EIVLTQSPGTLSLSPGERATLSCRASQSVSSSYLAWYQQKPGQAPRLLIYGASSRATGIPDRFSGSGSGTDFTLTISRLEPEDFAVYYCQQPFPFSFTFGQGTKVEIKR
notes: LALA
Ratio of KD in solution/immobilised for mouse MSLN-His-Avi [7]: 31.9 | Kd [8]: 7.9 nM | Kd [9]: 252 nM

B3: FS22m-063-AA/FS28m-228-010 mAb^2 (bispecific antibody, human IgG1, kappa, L234A L235A, V domains shown)
VH: EVQLLESGGGLVQPGGSLRLSCAASGFTFSTYFMVWVRQAPGKGLEWVSMISPKSSNTYYADSVKGRFTISRDNSKNTLYLQMNSLRAEDTAVYYCARYHISPRFDYWGQGTLVTVSS
VL: EIVLTQSPGTLSLSPGERATLSCRASQSVSSSYLAWYQQKPGQAPRLLIYGASSRATGIPDRFSGSGSGTDFTLTISRLEPEDFAVYYCQQPFPFSFTFGQGTKVEIKR
notes: Anti-mouse CD137 Fcab with anti-mouse MSLN Fab; LALA; also called CD137/MSLN mAb^2
Ratio of KD in solution/immobilised for mouse MSLN-His-Avi [7]: 23.2 | Kd [8]: 2.6 nM | Kd [9]: 60.2 nM

B4: OX40 (FS20-022-049)/FS28-256-271 mAb^2 (bispecific antibody, human IgG1, kappa, L234A L235A)
heavy: EVQLLESGGGLVQPGGSLRLSCAASGFTFTHTYMSWVRQAPGKGLEWVSAISPTYSTTNYADSVKGRFTISRDNNKNTLYLQMNSLRAEDTAVYYCARYNAYHAALDYWGQGTLVTVSSASTKGPSVFPLAPSSKSTSGGTAALGCLVKDYFPEPVTVSWNSGALTSGVHTFPAVLQSSGLYSLSSVVTVPSSSLGTQTYICNVNHKPSNTKVDKKVEPKSCDKTHTCPPCPAPEAAGGPSVFLFPPKPKDTLMISRTPEVTCVVVDVSHEDPEVKFNWYVDGVEVHNAKTKPREEQYNSTYRVVSVLTVLHQDWLNGKEYKCKVSNKALPAPIEKTISKAKGQPREPQVYTLPPSRDEYWDQEVSLTCLVKGFYPSDIAVEWESNGDEQFAYKTTPPVLDSDGSFFLYSKLTVDQYRWNPADYFSCSVMHEALHNHYTQKSLSLSPG
light: EIVLTQSPGTLSLSPGERATLSCRASQSVSSSYLAWYQQKPGQAPRLLIYGASSRATGIPDRFSGSGSGTDFTLTISRLEPEDFAVYYCQQTVPYPYTFGQGTKVEIKRTVAAPSVFIFPPSDEQLKSGTASVVCLLNNFYPREAKVQWKVDNALQSGNSQESVTEQDSKDSTYSLSSTLTLSKADYEKHKVYACEVTHQGLSSPVTKSFNRGEC
T cell activation assay (IL-2 release), NCI-H226 cells for crosslinking: EC50 [10]: 0.11 nM | T cell activation assay (IL-2 release), NCI-H226 cells for crosslinking: EC50 [11]: 0.11 nM

B5: FS28-256-271 (in CD137 mAb^2 format) (bispecific antibody, V domains shown)
VH: EVQLLESGGGLVQPGGSLRLSCAASGFTFTHTYMSWVRQAPGKGLEWVSAISPTYSTTNYADSVKGRFTISRDNNKNTLYLQMNSLRAEDTAVYYCARYNAYHAALDYWGQGTLVTVSS
VL: EIVLTQSPGTLSLSPGERATLSCRASQSVSSSYLAWYQQKPGQAPRLLIYGASSRATGIPDRFSGSGSGTDFTLTISRLEPEDFAVYYCQQTVPYPYTFGQGTKVEIK
Kd [12]: 18.2 nM | Kd [13]: 5.9 nM | Ratio of KD in solution/immobilised for human MSLN-His-Avi [14]: 3 | CD8+ T cell activation assay (IL-2 release), NCI-H226 cells for crosslinking: EC50 [10]: 0.096 nM | CD8+ T cell activation assay (IL-2 release), NCI-H226 cells for crosslinking: EC50 [15]: 0.096 nM
